# Positions count from the first letter of the chain named. Names and notes keep the numbering of the source.
# B1: GST-CNK (wild type CNK fused to GST, produced in E. coli) (protein)
# chain: MLAGLPTSDPGRLITDPRSGRTYLKGRLLGKGGFARCYEATDTETGSAYAVKVIPQSRVAKPHQREKILNEIELHRDLQHRHIVRFSHHFEDADNIYIFLELCSRKSLAHIWKARHTLLEPEVRYYLRQILSGLKYLHQRGILHRDLKLGNFFITENMELKVGDFGLAARLEPPEQRKKTICGTPNYVAPEVLLRQGHGPEADVWSLGCVMYTLLCGSPPFETADLKETYRCIKQVHYTLPASLSLPARQLLAAILRASPRDRPSIDQILRHDFFTKGYTPDRLPISSCVTVPDLTPPNPARSLFAKVTKSLFGRKKKSKNHAQERDEVSGLVSGLMRTSVGHQDARPEAPAASGPAPVSLVETAPEDSSPRGTLASSGDGFEEGLTVATVVESALCALRNCIAFMPPAEQNPAPLAQPEPLVWVSKWVDYSNKFGFGYQLSSRRVAVLFNDGTHMALSANRKTVHYNPTSTKHFSFSVGAVPRALQPQLGILRYFASYMEQHLMKGGDLPSVEEVEVPAPPLLLQWVKTDQALLMLFSDGTVQVNFYGDHTKLILSGWEPLLVTFVARNRSACTYLASHLRQLGCSPDLRQRLRYALRLLRDRSPA
# B2: GST-CNK D146A mutant (protein)
# chain: B1 chain with D146A
# What was measured:
# [1] = biological target: maltose binding protein (MBP)
# Sequence of p53, P04637 (P04637 whole entry, looked up): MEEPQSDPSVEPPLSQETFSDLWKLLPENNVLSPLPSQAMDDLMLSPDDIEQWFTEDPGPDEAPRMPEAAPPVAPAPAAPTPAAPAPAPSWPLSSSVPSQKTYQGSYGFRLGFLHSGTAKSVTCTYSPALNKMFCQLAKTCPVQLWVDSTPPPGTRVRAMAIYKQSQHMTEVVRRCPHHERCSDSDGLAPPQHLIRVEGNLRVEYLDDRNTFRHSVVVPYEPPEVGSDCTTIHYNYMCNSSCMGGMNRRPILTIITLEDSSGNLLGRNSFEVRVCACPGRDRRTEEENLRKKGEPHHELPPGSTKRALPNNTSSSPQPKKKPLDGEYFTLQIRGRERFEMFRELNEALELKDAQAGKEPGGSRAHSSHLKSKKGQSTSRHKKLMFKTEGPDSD
Protein,"kinase activity (32P-ATP kinase reaction) (p53, P04637)",kinase activity (32P-ATP kinase reaction) [1]
B1,"Wild type GST-CNK phosphorylated p53, maltose binding protein (MBP) and also exhibited autophosphorylation activity.","Wild type GST-CNK phosphorylated p53, maltose binding protein (MBP) and also exhibited autophosphorylation activity."
B2,The GST-CNK D146A mutant did not exhibit kinase activity.,The GST-CNK D146A mutant did not exhibit kinase activity.

# From patent US20040126784
